The target in experiment [1] is CD38 (antigen of the Bioveris affinity determination) (Homo sapiens (Human), UniProt P28907 45-300, limits assumed). Briefly: Bioveris, Fab format.
For experiment [2], the target named is T1, Cynomolgus CD38 on PBMCs (Lymphocytes) (cynomolgus monkey, UniProt Q5VAN0).
T1 construct: native protein on lymphocytes of the PBMC fraction of whole blood
Briefly: FACS, Fab format, cynomolgus lymphocytes (PBMC fraction).

In experiment [3] the target is T2, human CD38 Fc-fusion aa 45-300 (human, UniProt P28907 45-300).
T2 construct: Expressed in HEK293 behind a human Vkappa leader, which is left out here; also called CD38-Fc fusion protein; CD38 Fc-Fusion protein
Briefly: SPR (Biacore), Fab format.

In experiment [4] the target is T3, human CD38 on cells (human, UniProt P28907 1-300).
T3 construct: The cell that carried CD38 is named under assay in each row; also called CD38 on Raji, RPMI8226, OPM2, CCRF-CEM, human erythrocytes, CD38 CHO-K1 transfectants
Briefly: FACS Scatchard on RPMI8226 cells.

In experiment [5] the target is T4, Cynomolgus CD38 on Erythrocytes (cynomolgus monkey, UniProt Q5VAN0).
T4 construct: native protein on erythrocytes (pellet of the density gradient)
Briefly: FACS, Fab format, cynomolgus erythrocytes.

For experiment [6], the target named is T2, human CD38 Fc-fusion aa 45-300. Briefly: ELISA on CD38 Fc-fusion protein, IgG format.
Experiment [7] addresses T3, human CD38 on cells. Nature of the experiment: FACS Scatchard on OPM2 cells, IgG format.
The target in experiment [8] is T1, Cynomolgus CD38 on PBMCs (Lymphocytes). Briefly: FACS, Fab format, cynomolgus lymphocytes (PBMC fraction); column taken from the order of panel A [Continued].
The target in experiment [9] is T2, human CD38 Fc-fusion aa 45-300. Briefly: SPR (Biacore), Fab on immobilized CD38 Fc-fusion.
In experiment [10] the target is T4, Cynomolgus CD38 on Erythrocytes. Nature of the experiment: FACS, Fab format, cynomolgus erythrocytes; column taken from the order of panel A [Continued].
Experiment [11] deals with T3, human CD38 on cells. Nature of the experiment: FACS Scatchard on RPMI8226 cells; * different experiment.
Experiment [12] concerns the target T3, human CD38 on cells. Briefly: FACS Scatchard on OPM2 cells, mean from 2 measurements; OPM2 cells, FACS Scatchard; mean from 2 measurements.
Experiment [13] addresses T3, human CD38 on cells. Briefly: FACS Scatchard on CCRF-CEM cells, single measurement; CCRF-CEM cells, FACS Scatchard; single measurement.
The target of experiment [14] is T3, human CD38 on cells. Briefly: FACS Scatchard on RPMI8226 cells, single measurement; RPMI8226 cells, FACS Scatchard; single measurement.
Experiment [15] has as its target T3, human CD38 on cells. Nature of the experiment: FACS Scatchard on OPM2 cells, IgG format; * different experiment; OPM2 cells, FACS Scatchard, IgG format; different experiment.
Experiment [16] deals with T2, human CD38 Fc-fusion aa 45-300. Briefly: SPR (Biacore), Fab on immobilized CD38 Fc-fusion; 54 is the standard deviation (n = 3).
The target of experiment [17] is T3, human CD38 on cells. Briefly: FACS Scatchard, IgG1 on Raji cells.
For experiment [18], the target named is T2, human CD38 Fc-fusion aa 45-300. Briefly: SPR (Biacore), Fab on immobilized CD38 Fc-fusion; 84 taken as the standard deviation (n = 4) by footnote d.

Residue numbers refer to the chain shown, from its start.

B1: MOR03087 Fab (Fab, V domains shown)
VH: QVQLVESGGGLVQPGGSLRLSCAASGFTFSSYYMNWVRQAPGKGLEWVSGISGDPSNTYYADSVKGRFTISRDNSKNTLYLQMNSLRAEDTAVYYCARDLPLVYTGFAYWGQGTLVTVSS
VL: DIELTQPPSVSVAPGQTARISCSGDNLRHYYVYWYQQKPGQAPVLVIYGDSKRPSGIPERFSGSNSGNTATLTISGTQAEDEADYYCQTYTGGASLVFGGGTKLTVLG
notes: Fab format
In the case of B1, the values for the dissociation constant (Kd) in experiment [1] and in experiment [3] were 0.0488 nM and 5.68 nM, respectively. Besides, the binding result in experiment [2] and in [5] was “binds” in each case. Besides, in experiment [4], the EC50 came out at 5.37 nM.

B2: MOR06183 IgG (antibody, V domains shown)
VH: B1 VH with S52N, G53M, D54E, P55S, S56T, N57R, T58I
VL: B1 VL
Regarding B2, in experiment [6], the “ELISA CD38 Fc-Fusion protein (% Reactivity of MOR03087)” value is 106%. For the same molecule, it took 8.91 nM to reach a half-maximal effect in [7] (EC50).

B3: MOR06185 IgG (antibody, V domains shown)
VH: B1 VH with G50A, G53M, D54N, P55G, S56D, N57Y, T58I, Y59S
VL: B1 VL
In the case of B3, the “ELISA CD38 Fc-Fusion protein (% Reactivity of MOR03087)” value in experiment [6] was 142%. In [7], this molecule gave an EC50 of 11.5 nM.

B4: MOR06186 IgG (antibody, V domains shown)
VH: B1 VH with G50A, S52N, G53L, D54S, P55G, N57A, T58K
VL: B1 VL
For the molecule B4, in experiment [6], the “ELISA CD38 Fc-Fusion protein (% Reactivity of MOR03087)” value is 117%. The molecule also gave an EC50 in [7] of 15.6 nM.

B5: MOR06188 IgG (antibody, V domains shown)
VH: B1 VH with G50A, G53T, D54N, P55G, S56W, N57Q
VL: B1 VL
With B5, in experiment [6], the “ELISA CD38 Fc-Fusion protein (% Reactivity of MOR03087)” value worked out at 140%. In experiment [7], the concentration giving a half-maximal response (EC50) was 20.1 nM.

B6: MOR06187 IgG (antibody, V domains shown)
VH: B1 VH with G50A, G53S, D54N, P55G, S56D, N57I
VL: B1 VL
On to B6, for which the “ELISA CD38 Fc-Fusion protein (% Reactivity of MOR03087)” value in [6] turned out to be 145%. Also, the EC50 in experiment [7] was 9.37 nM.

B7: MOR06184 IgG (antibody, V domains shown)
VH: B1 VH with G50A, G53H, P55G, S56N, N57V, T58K
VL: B1 VL
Take B7: the “ELISA CD38 Fc-Fusion protein (% Reactivity of MOR03087)” value in experiment [6] is 150%. In addition, in [7], the EC50 is 10.6 nM.

B8: MOR06200 IgG (antibody, V domains shown)
VH: B1 VH with G50A, G53N, D54N, P55G, S56N, N57V
VL: B1 VL
notes: copies: 2 + 2
As for B8, the “ELISA CD38 Fc-Fusion protein (% Reactivity of MOR03087)” value in [6] worked out at 144%. Further, the concentration giving a half-maximal response (EC50) in experiment [7] was found to be 7.15 nM.

B9: MOR03088 Fab (Fab, V domains shown)
VH: QVQLVESGGGLVQPGGSLRLSCAASGFTFSSYAMNWVRQAPGKGLEWVSGISSWGSSTYYADSVKGRFTISRDNSKNTLYLQMNSLRAEDTAVYYCAREDGSYMTDYFAYWGQGTLVTVSS
VL: DIELTQPPSVSVAPGQTARISCSGDNIGHYYVSWYQQKPGQAPVLVIYSDSNRPSGIPERFSGSNSGNTATLTISGTQAEDEADYYCQSYNGTYVFGGGTKLTVLG
notes: Fab format
With B9, the binding result in experiment [8] and in experiment [10] was “binds” each time. The equilibrium dissociation constant (Kd) came to 2.15 nM in experiment [1], 95 nM in experiment [9] and 41.4 nM in [3]. For the same molecule, the midpoint of the response in experiment [11], the EC50, lay at 24.6 nM.

B10: MOR03088 IgG (antibody, V domains shown)
VH: B9 VH
VL: B9 VL
In the case of B10, the half-maximal effective concentration (EC50) in experiment [12] was 2.6 nM; in experiment [13], 25.5 nM; in experiment [14] it was 24.6 nM; in experiment [15], 15.3 nM. In addition, the “ELISA CD38 Fc-Fusion protein (% Reactivity of MOR03087)” value in experiment [6] was determined as 18%.

B11: MOR03127 Fab (Fab, V domains shown)
VH: QVQLVQSGAEVKKPGESLKISCKGSGYSFSTSWVGWVRQMPGKGLEWMGIIDPDISYTSYSPSFQGQVTISADKSISTAYLQWSSLKASDTAMYYCARYLMGLGYDVWGQGTLVTVSS
VL: DIALTQPASVSGSPGQSITISCTGTSSDVGAINYVSWYQQHPGKAPKLMIYDVNKRPSGVPDRFSGSKSGNTASLTISGLQAEDEADYYCGSYTMQVGSYVFGGGTKLTVLG
notes: Fab format
On to B11, for which the Kd in [16] turned out to be 168 nM.

B12: MOR03102 IgG1 (antibody, V domains shown)
VH: QVQLQESGPGLVKPGETLSLTCTVSGGSISGNYWSWIRQAPGKGLEWIGDYHGSTYYNPSLKGRVTISVDTSKNQFSLKLSSVTAEDTAVYYCAREQYHWGLAWTGFDNWGQGTLVTVSS
VL: DIELTQPPSVSVAPGQTARISCSGDNLGHYYVSWYQQKPGQAPVLVIYDDSDRPSGIPERFSGSNSGNTATLTISGTQAEDEADYYCGAYAMHMTVFGGGTKLTVLG
Molecule B12 returned a Kd in [17] of 5 nM. That is a single-digit nanomolar value.

B13: MOR03128 Fab (Fab, V domains shown)
VH: QVQLKESGPALVKPTQTLTLTCTFSGFSLSSSGMSVSWIRQPPGKALEWLARIYSDDSKSYSTSLKTRLTISKDTSKNQVVLTMTNMDPVDTATYYCARAAHWNGPLFDVWGQGTLVTVSS
VL: DIELTQPPSVSVAPGQTARISCSGDNIGHYYAHWYQQKPGQAPVVVIYDDNDRPSGIPERFSGSNSGNTATLTISGTQAEDEADYYCQAYTGDGGRVFGGGTKLTVLG
notes: Fab format
The molecule B13 yielded a Kd in experiment [18] of 117 nM.

B14: MOR03081 IgG1 (antibody, V domains shown)
VH: QVQLVESGGGLVQPGGSLRLSCAASGFTFSSYALHWVRQAPGKGLEWVSSISGLGSTTYYADSVKGRFTISRDNSKNTLYLQMNSLRAEDTAVYYCARYHYEYHYFSSGFDNWGQGTLVTVSS
VL: DIVLTQSPATLSLSPGERATLSCRASQTGSTSYLAWYQQKPGQAPRLLIYDASKRATGVPARFSGSGSGTDFTLTISSLEPEDFATYYCHQYYNVPHTFGQGTKVEIKR
In turn, B14 showed a Kd in experiment [17] of 2.5 nM.

B15: MOR03085 Fab (Fab, V domains shown)
VH: QVQLVQSGAEVKKPGASVKVSCKASGYTFTGYYINWVRQAPGQGLEWMGWIFPNGGSTGYAQKFQGRVTMTRDTSISTAYMELSSLRSEDTAVYYCARGNIFIFDYWGQGTLVTVSS
VL: DIVLTQPPSVSGAPGQRVTISCSGSSSNIGNNYVSWYQQLPGTAPKLLIYGDDQRPSGVPDRFSGSKSGTSASLAITGLQSEDEADYYCQSYGTFSSFVFGGGTKLTVLG
notes: Fab format
In the case of B15, in experiment [9], the affinity, expressed as Kd, was 122 nM. This lies in the sub-micromolar range.

B16: MOR03085 IgG1 (antibody, V domains shown)
VH: B15 VH
VL: B15 VL
In experiment [17], B16 displayed a Kd of 10 nM.

B17: MOR03086 Fab (Fab, V domains shown)
VH: QVQLVESGGGLVQPGGSLRLSCAASGFTFTSYYMHWVRQAPGKGLEWVSYIDSSGSSTYYADSVKGRFTISRDNSKNTLYLQMNSLRAEDTAVYYCARQLMPFGGYFDVWGQGTLVTVSS
VL: DIQMTQSPSSLSASVGDRVTITCRASQNISQWLNWYQQKPGKAPKLLIYGASNLQSGVPSRFSGSGSGTDFTLTISSLQPEDFATYYCQQYYDLPNTFGQGTKVEIKR
notes: Fab format
With B17, the dissociation constant (Kd) in [9] came out at 30 nM.

The values are drawn from patent US20240309109A1 (MorphoSys, published 2024).
